Drawing on patent US20210403538A1, this text covers EC50 for three substances.

The target of assay [1] is SUDV GP [change] (Sudan ebolavirus) (UniProt Q7T9D9).
Assay [2] has as its target MARV GP [change] (Lake Victoria marburgvirus) (UniProt Q1PD50).
Assay [3] concerns the target EBOV GP [change] (Zaire ebolavirus (EBOV), strain Makona). The experiment in a line: ELISA, coated recombinant GP ΔTM. (In general: An ELISA detects its analyte on a solid surface through an enzyme-linked reagent.)
Assay [4] addresses BDBV GP [change] (Bundibugyo ebolavirus (BDBV), strain 200706291 Uganda). Nature of the assay: ELISA, coated recombinant GP ΔTM.
For assay [5], the target named is SUDV GP [change] (Sudan ebolavirus (SUDV), strain Gulu) (UniProt Q7T9D9). Nature of the assay: ELISA.

As to 4G7 (antibody), the EC50 in assay [1] was > 10 µg/mL; in assay [2], > 10 µg/mL; in assay [3], 0.018 µg/mL; in assay [4], > 10 µg/mL.
KZ52 (antibody): the EC50 in assay [1] was > 10 µg/mL; in assay [2] it was > 10 µg/mL; in assay [3], 0.014 µg/mL; in assay [4] it was > 10 µg/mL.
rEBOV-520 LALA registered a concentration giving a half-maximal response (EC50) in assay [5] of 0.377 µg/mL.

The EC50 is the concentration needed to bring the measured effect to its halfway point.
